The record followed here is paper PMC6192543 (Journal of the American Chemical Society, 2018).

For the assay, the target named is human A2A adenosine receptor variant A2AAR[K233W] (human, UniProt P29274 1-316, N154Q | K233W, uniformly 15N-labelled, ~70% 2H). The experiment in a line: NMR titration.
Sequence of human A2A adenosine receptor variant A2AAR[K233W] (P29274 1-316 N154Q/K233W): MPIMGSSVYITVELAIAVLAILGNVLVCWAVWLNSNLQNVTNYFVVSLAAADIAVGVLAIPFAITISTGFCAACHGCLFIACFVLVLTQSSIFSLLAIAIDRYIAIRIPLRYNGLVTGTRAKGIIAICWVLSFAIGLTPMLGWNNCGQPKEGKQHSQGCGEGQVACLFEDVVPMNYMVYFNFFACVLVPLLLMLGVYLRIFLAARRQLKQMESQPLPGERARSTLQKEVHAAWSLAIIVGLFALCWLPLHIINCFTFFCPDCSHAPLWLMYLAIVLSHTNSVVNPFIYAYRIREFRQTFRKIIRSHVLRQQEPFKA

With RVFNDARDIIQRMHLRQYELL (peptide, UniProt P63092 374-394, looked up) [C-terminal polypeptide GαS(374–394)[C379A]], the binding result is “binds”.
